Results taken from patent US6693079.
Positions of bridges follow the written chain, without caps; N, C: chain ends. No end group written: not given here.

T1: recombinant human IGFBP-1 (human, UniProt P08833 26-259)
T1 construct: Plate-coated, biotinylated or coupled to a dextran chip, depending on the assay; also called rhIGFBP-1; biotinylated IGFBP-1
T1 sequence (looked up): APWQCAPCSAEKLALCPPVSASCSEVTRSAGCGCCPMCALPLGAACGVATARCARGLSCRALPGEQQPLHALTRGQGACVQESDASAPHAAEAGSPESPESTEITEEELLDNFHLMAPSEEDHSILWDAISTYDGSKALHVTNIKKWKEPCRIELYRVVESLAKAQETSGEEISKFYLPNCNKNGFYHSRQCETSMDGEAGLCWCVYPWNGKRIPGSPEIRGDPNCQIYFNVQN

B1: bp3-28 (peptide)
peptide: EEVCWPVAEWYLCN
notes: bp3-01-ox variant
B2: bp3-25 (SEQ ID NO:106) (peptide)
peptide: CWPVAEWYLCN
B3: bp3-30 (peptide)
peptide: ASEEVCWPVAEWYLCN
notes: bp3-01-ox variant
B4: bp3-41 (peptide)
peptide: GPETCWPVAEWYLCN
notes: bp3-01-ox variant
B5: bp3-27 (peptide)
peptide: EVCWPVAEWYLCN
notes: bp3-01-ox variant
B6: 4d3.3 (peptide) (peptide)
peptide: ASEEVCWPVAEWYLCNMWGR
B7: bp1-18 (peptide)
peptide: CRAGPLQWLCEKAA
notes: C-terminal variant of bp1-01
B8: bp1-21B (peptide)
peptide: CRAGPLQWLCEKYFSTY-NH2
modifications: disulfide 1-10 (inferred)
notes: Peptide from g3 bp1-01 secondary libraries
B9: bp1-19 (peptide)
peptide: SEMVCRAGPLQWLCEIYF-NH2
modifications: disulfide 5-14 (inferred)
notes: as for B8
B10: bp1-21A (peptide)
peptide: SEVGCRAGPLQWLCEKYFSTY-NH2
modifications: disulfide 5-14 (inferred)
notes: as for B8
B11: bp1-20 (peptide)
peptide: EARVCRAGPLQWLCEKYF-NH2
modifications: disulfide 5-14 (inferred)
notes: as for B8
B12: bp1-12 (peptide)
peptide: CKEGPLQWLCEKYF
notes: Peptide from g8 bp1-01 secondary libraries
B13: bp1-13 (peptide)
peptide: CKEGPLLWLCEKYF
notes: as for B12
B14: bp1027 (peptide)
peptide: CKAGPLLWLCERFF
notes: as for B12
B15: bp1030 (peptide)
peptide: CKEGPLLWLCERFF
notes: as for B12
B16: bp1-10 (peptide)
peptide: CRKGPLQWLCELYF
notes: as for B12
B17: bp68 (peptide)
peptide: CRAGPLQWLCEKFF
notes: as for B12
B18: bp1028 (peptide)
peptide: CRAGPLQWLCERFF
notes: as for B12
B19: bp1-15 (peptide)
peptide: CAAGPLQWLCEKYF
notes: as for B12
B20: bp1029 (peptide)
peptide: CREGPLQWLCERFF
notes: as for B12
B21: bp1-11 (peptide)
peptide: CRKGPLQWLCEKYF
notes: as for B12

Target: T2, recombinant human IGFBP-3 (human, UniProt P17936 28-291)
T2 construct: also called rhIGFBP-3; biotinylated IGFBP-3
T2 sequence (P17936 28-291 limits assumed): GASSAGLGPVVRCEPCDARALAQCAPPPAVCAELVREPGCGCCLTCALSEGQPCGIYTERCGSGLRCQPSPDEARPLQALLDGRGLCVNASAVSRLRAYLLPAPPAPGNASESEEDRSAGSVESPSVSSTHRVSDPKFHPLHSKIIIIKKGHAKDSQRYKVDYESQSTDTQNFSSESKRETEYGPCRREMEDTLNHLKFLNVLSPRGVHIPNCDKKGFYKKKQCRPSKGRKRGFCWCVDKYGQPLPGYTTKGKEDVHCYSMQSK
Assay: BIAcore competition assay

Binding result, binds:
B1
B2
B3
B4
B5
B6

Target: T1, recombinant human IGFBP-1
Assay: ELISA competition, C-terminal bp1-01 variants

Binding result, binds:
B7

Target: T1, recombinant human IGFBP-1
Assay: BIAcore competition assay or ELISA plate assay

Binding result, binds:
B8
B9
B10
B11

Target: T1, recombinant human IGFBP-1
Assay: ELISA plate assay or BIAcore competition, IGF-I inhibition

Binding result, binds:
B12
B13
B14
B15
B16
B17
B18
B19
B20
B21
